{"source": "paper PMC9992855", "about": "“Functional polyamine metabolic enzymes and pathways encoded by the virosphere” (Proceedings of the National Academy of Sciences of the …, 2023)", "proteins": {"B1": {"name": "M. ramosa APAH (Mycoplana ramosa) (protein)", "chain": "MRVIFSEDHKLRNAKTELYGGELVPPFEAPFRAEWILAAVKEAGFDDVVAPARHGLETVLKVHDAGYLNFLETAWDRWKAAGYKGEAIATSFPVRRTSPRIPTDIEGQIGYYCNAAETAISPGTWEAALSSMASAIDGADLIAAGHKAAFSLCRPPGHHAGIDMFGGYCFINNAAVAAQRLLDKGAKKIAILDVDFHHGNGTQDIFYERGDVFFASLHGDPAEAFPHFLGYAEETGKGAGAGTTANYPMGRGTPYSVWGEALTDSLKRIAAFGAEAIVVSLGVDTFEQDPISFFKLTSPDYITMGRTIAASGVPLLVVMEGGYGVPEIGLNVANVLKGVAG", "notes": "341 aa; positive comparative control enzyme"}}, "substrate": "CC(=O)NCCCNCCCCN", "experiment": "colorimetric acetate release", "type": "biochemical, Mycoplana ramosa", "details": "26 °C", "source_text": "colorimetric acetate release on M. ramosa APAH"}
{"protein": "B1", "values": [{"measurement": "Km", "value": "630 ± 40", "unit": "µM"}, {"measurement": "kcat", "value": "5.8 ± 0.14", "unit": "s⁻¹"}, {"measurement": "kcat/Km", "value": "9300 ± 450", "unit": "M⁻¹ s⁻¹"}]}
